140 substances from the supplement of paper PMC12042874 can be followed below.

± gives the uncertainty stated by the source.

This series in a line: amyloid nucleation score (Sup35N fusion, yeast selection) (log enrichment); library NNK2; higher = more nucleation; inactive = no reads after selection. In outline:
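In psi-negative yeast, Sup35N fusions carrying peptides of 20 random codons were induced with 100 μM copper sulfate for 24 hours. The cells then grew 7 days at 30°C on medium lacking adenine and uracil, and plasmid inserts from input and output were Illumina-sequenced, excluding sequences with under 100 input reads. Nucleation score is the DiMSum log enrichment of output over input reads, centred on the mode score of non-aggregating sequences.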
VTYLMCLWAGVARG registered an amyloid nucleation score of -0.324 ± 1.1.
Under VTYWFLLHNIRRLPRYIWLR stands -0.664 ± 0.48.
Take VVAFRMSSDNAHSHDLPVPW: the amyloid nucleation score was determined as 5.59 ± 0.073.
The result for VVAVVPYFN reads -0.202 ± 1.1; that for VVCEASTCDMLESEWFWAEF, 0.226 ± 0.23.
The substance VVDTGFQRTGKSWIINDRGM had an amyloid nucleation score of 0.253 ± 0.14.
Take VVDTMNFNYCVVCSLRSVWQ: the amyloid nucleation score was determined as 10.5 ± 0.058.
Regarding VVFTGWYHEGWRVV, the amyloid nucleation score was 0.914 ± 0.18.
VVGFSMFYKWDMNSMVSRMS: the amyloid nucleation score amounted to 2.27 ± 0.084.
Substance VVGTPCL yielded an amyloid nucleation score of 0.542 ± 0.41.
On to VVHQVSVGHCWVSR, for which the amyloid nucleation score is 0.683 ± 0.21.
VVNCCGWMVPVGPSHW had an amyloid nucleation score of 10.32 ± 0.035.
VVRAFTDKPRSVSDSLGVIN gave an amyloid nucleation score of 1.16 ± 0.18.
The result for VVRVFLKGSSCGSLEAFDYV reads 2.86 ± 0.19; that for VVWARYSVNLWMNLGSQASF, 4.01 ± 0.1.
In the case of VVWSN, the amyloid nucleation score worked out at 0.845 ± 0.29.
Under VVYPCFSIMLQMEVLYIVFI stands 1.33 ± 0.33; under VVYRLDFRPFNSPPCMRSAS, 0.074 ± 0.32; under VWLALEWVLGWSTMR, 1.73 ± 0.19.
The result for VWLCHSVNHIAISNE reads 1.12 ± 0.45.
In turn, VWMYITSW returned an amyloid nucleation score of -1.12 ± 0.55.
The substance VWTES came in with an amyloid nucleation score of 1.83 ± 0.25.
Under VWVPQSVIRSLHLPSN stands -1.01 ± 1.1.
For VWWVAFYSGTKI, the amyloid nucleation score stood at 0.019 ± 1.1.
For the substance VWYITIYIWGMRRLIAWRMS, the amyloid nucleation score came to 0.31 ± 0.74.
VWYLFKNAFHMVFKTEWYEG yielded an amyloid nucleation score of -1.52 ± 0.54.
Under VYATFPSTIYLMLVFMESGV stands “inactive”; under VYCFSAFLGQ, 3.63 ± 0.082; under VYCVGNMSLGGLMDNCWYAG, 4.41 ± 0.062.
VYEKVVLGKDFVM returned an amyloid nucleation score of -0.28 ± 0.79.
Turning to VYFMCLWGFI, the amyloid nucleation score is -0.453 ± 1.1.
In turn, VYFSSSIADKFYNLISVRFI returned an amyloid nucleation score of 0.833 ± 0.8.
Under VYGPTVNFK stands 0.761 ± 0.25.
Consider VYIAAHTCIC, for which the amyloid nucleation score came to 4.93 ± 0.079.
Under VYIILSFSIGMGEFNMISGG stands -0.587 ± 0.79; under VYIIVFRIWLPLHFWSSTLM, -0.354 ± 0.56.
For the substance VYKYNISFLEPKHESQAWNK, the amyloid nucleation score is 0.042 ± 0.63.
The result for VYLVRKWRSGWRYLTRVI reads 1.24 ± 0.41.
The result for VYMHASCSERSMDESRNRVD reads “inactive”; that for VYTFK, 0.667 ± 0.66; that for VYTRKCGLAFRVSSGT, 0.574 ± 0.5.
Substance VYTRMKITVGFKYLYN returned an amyloid nucleation score of 1.24 ± 0.45.
Regarding VYTTLPYSFGGYNCYMSSRL, the amyloid nucleation score result is “inactive”.
In the case of VYWCLITFNHEDAHSYCFL, the amyloid nucleation score came to 2.22 ± 0.26.
Under VYYGVYLMSCFVAGGYFYCF stands 3.75 ± 0.061.
The result for VYYIYQLEWSDVFFSAYGVH reads -0.072 ± 0.76; that for VYYLDSV, 0.978 ± 0.74; that for VYYLVSLGLT, 1.91 ± 0.14.
For the substance VYYSNTTTRSCSEMQVVFFF, the amyloid nucleation score is -1.13 ± 0.41.
The result for WALYVGGANRFFMCQWVNLG reads 2.26 ± 0.13.
The result for WATFRPD reads 0.31 ± 0.54; that for WCAPWPWVKCLFTSPVFSVV, 0.712 ± 0.4.
As for WCLMVGFMFMCRYDGNQSDG, the amyloid nucleation score worked out at 2.98 ± 0.051.
The result for WCRWMGMH reads 0.543 ± 0.47.
For the substance WCSVLRDNKLSR, the amyloid nucleation score is -1.09 ± 0.45.
The result for WCWLEYCCTIDSLIFLFEN reads 4.09 ± 0.12.
The result for WDLLRVM reads 0.312 ± 0.8; that for WDNLNDFHN, -1.35 ± 1.1; that for WDNWDPVAAP, “inactive”.
As for WDYVQVCPNLLVRTLLFMFA, the amyloid nucleation score was -0.81 ± 0.32.
Under WEASSFKVSGLSGSHHPSKG stands 2.3 ± 0.13; under WEIRNAYVQVT, -0.178 ± 0.39.
Under WEITLVNGSWVLESRTQRHF stands 4.06 ± 0.079; under WFAGFMCRVLACTFSALKLS, -0.917 ± 0.78.
The result for WFFFFNGPAYVFNLNIVNFS reads 7.035 ± 0.06; that for WFGYMALPR, 4.63 ± 0.064.
In the case of WFISPKDKGRASIHLNEYRW, the amyloid nucleation score was 3.97 ± 0.045.
Under WFMERVFYNSTNSTQLFEWV stands “inactive”; under WFYKVSSA, -0.481 ± 0.55.
As to WFYNVATYTHVAANTRVMKC, the amyloid nucleation score amounted to 0.231 ± 0.44.
On to WGAEILAHVGPSHEYSR, for which the amyloid nucleation score was -0.175 ± 0.49.
For the substance WGCCGDLVYAIS, the amyloid nucleation score was 0.194 ± 0.62.
Under WGRLGARCYRRILVPGRCLE stands -0.756 ± 0.48; under WGRWAVSFYGLREDSLLSLG, -0.324 ± 0.53; under WGSGNGLVGLHYLASLFERN, 0.847 ± 0.58.
Substance WGSISNIFYLLRVLYCLSMS showed an amyloid nucleation score of 1.79 ± 0.26.
Turning to WGTCMCRKWASHFDREC, the amyloid nucleation score turned out to be 2.55 ± 0.17.
The result for WGVFWLPH reads -0.807 ± 0.56.
Substance WGWEIFIVWTWLRGVILYVL gave an amyloid nucleation score of -0.602 ± 1.1.
Under WHEWCEGCGRNCSWEVGQDR stands 0.435 ± 0.23; under WHFSRSWDPKFWRRAHSWWE, 0.276 ± 0.5; under WIITNCSLFFSVALS, 6.79 ± 0.085.
Under WILVGFIIGTKWVSRPTTDC stands 3.61 ± 0.056; under WIVRFSGCCDVGWTSGVRSY, 6.17 ± 0.075.
For WIYIIVSPFMRWLESSLLSA, the amyloid nucleation score entry was “inactive”.
The substance WLGRCVNNNLNDVCDFQT showed an amyloid nucleation score of -1.17 ± 0.39.
Take WLKYMSCSLAKSQVSACVSV: the amyloid nucleation score was 0.219 ± 0.46.
The result for WLLKFSVGLNFFSEFNVLRC reads -1.43 ± 0.75.
Under WLLVDYAASCRGKWCHEMHG stands 0.284 ± 0.19; under WLLVYYISARVQQSADNKRW, -1.02 ± 1.
Under WLPKVWLRVRWFNEEKRDGG stands -0.123 ± 0.54; under WLVKLSGDMF, 2.54 ± 0.073.
For the substance WLYDPSIMWNIGWVSNMMHQ, the amyloid nucleation score was -0.454 ± 0.24.
Under WLYLFKGWSNLDSESFTMTS stands -0.943 ± 0.78; under WMCRSTAMIHSRSDCV, 6.328 ± 0.052.
For the substance WNAALKYKAHVGIDVSRCVP, the amyloid nucleation score is 0.535 ± 0.33.
Under WPNFV stands -0.995 ± 0.76.
For the substance WQRMDGIGELILMCCRYSFL, the amyloid nucleation score was 5.819 ± 0.033.
The result for WQSSSILIASSCVRSPGLPV reads 0.27 ± 0.46; that for WQYFFGMYNPSGGRRPGISG, -0.373 ± 1; that for WRAKAFSEKFIERRWDVGMN, -1.18 ± 0.62.
Substance WRALPKYGYCLSLGVYEETR returned an amyloid nucleation score of -0.102 ± 0.55.
Under WRIYQDTFCLSIS stands 3.87 ± 0.076.
Under WRVSSSI stands -0.706 ± 0.76.
The substance WRYITCHS registered an amyloid nucleation score of 1.59 ± 0.55.
The substance WSGKRAFNYINGGLGMAKEL gave an amyloid nucleation score of 4.11 ± 0.062.
Consider WSLLEF, for which the amyloid nucleation score entry was “inactive”.
Under WSMKGFYL stands “inactive”.
WSNFVIMNVPANGAWNFRIR returned an amyloid nucleation score of -1.13 ± 0.76.
The result for WSPIGSFRCCGWCSSHQVRI reads 0.179 ± 0.57; that for WSRADDRQWGPRLDNVVVMV, 0.83 ± 0.45; that for WSVWVRDSGSRMS, 1.22 ± 0.13.
WTCVEVHAVYCFGSVDELVL: the amyloid nucleation score was 8.556 ± 0.058.
The result for WTCVGSYWSLHFAFSR reads 4.25 ± 0.12; that for WTLLNCRGSEVKIGRCTKMG, “inactive”; that for WTMMYCTNACYDRYICNYRA, -0.038 ± 1.1.
The result for WTVRSARFWMSKQVVFSTTV reads 0.812 ± 0.5; that for WVACWTSLLYQVIVIIRGLN, 0.975 ± 0.38; that for WVAKYLFSLEDHVSVRIVDI, 0.227 ± 0.56.
The result for WVASSSKQRTHLCSGVKWSV reads 0.539 ± 0.56.
As to WVCLYDVVICRIRLSDRENS, the amyloid nucleation score was 0.713 ± 0.74.
The substance WVDIPFW returned an amyloid nucleation score of -0.83 ± 1.1.
Substance WVNIYADLRLKVVAGNCCNV came in with an amyloid nucleation score of 3.38 ± 0.12.
As for WVVVDNHLS, the amyloid nucleation score is -0.234 ± 0.65.
Under WVWRIRDCLIVSSTPTGMRV stands 0.806 ± 0.27; under WVYLRVFAHKKRAALSWAYS, -0.077 ± 0.34.
Regarding WWCMLFNGEGGDCDILDFSS, the amyloid nucleation score is -0.385 ± 0.49.
Under WWDRVRLFRYRLCGSKSLMS stands 0.429 ± 0.38; under WWDTRRHVQCCSAEAIDFME, 1.3 ± 0.47; under WWFLIYLSSYRGNRCILVWF, -1.98 ± 0.44.
In the case of WWSARYRGTLD, the amyloid nucleation score was 1.57 ± 0.24.
Take WWSKEREYWSLPVGWFMEAV: the amyloid nucleation score is 0.085 ± 0.45.
As for WYALNYTIPEPYWT, the amyloid nucleation score was 0.881 ± 0.48.
Under WYMKILFGKRFSFGGVVSIF stands 3.74 ± 0.11; under WYMQGTLTAMGRGQTQYLSC, 0.405 ± 0.64.
Under WYSQVPERALRQWGFFSLGG stands 0.397 ± 0.46; under WYYFYLFDACLSVSCWAIWY, -0.283 ± 1; under YAFRSYMKFIYFCSDFFSDR, -2.32 ± 0.75.
Consider YALCLKALEFMVMGLPSSRM, for which the amyloid nucleation score was -0.049 ± 0.76.
The result for YALDL reads 0.08 ± 0.55.
